Measured values from the supplement of paper PMC9170038.

Test system: MS2 coat protein
Assay: apparent KD of MS2 coat protein; designed switch direction (-1 OFF switch, 1 ON switch): -1; higher = weaker reporter binding
Summary of the method: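 Normalised cluster fluorescence was curve-fitted, and each design's median over clusters is its apparent KD. Before this, SNAP-549-labelled MS2 coat protein was titrated from 0.7 or 1.5 nM, doubling to 3 µM, over RNA switches transcribed on Illumina chips by stalled E. coli RNA polymerase. Titrations had no input, 200 uM small-molecule ligand, or an oligonucleotide input, and steps lasted 0.8–1.5 h (lowest) to 10–20 min (highest).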

[1] = Eterna round: R95, input ligand: microRNA oligo, concentration not stated
[2] = input ligand: microRNA oligo, concentration not stated

| Sequence | apparent KD of MS2 coat protein (input ligand: FMN 200 uM) | apparent KD of MS2 coat protein (input ligand: none) | apparent KD of MS2 coat protein [1] | apparent KD of MS2 coat protein [2] | apparent KD of MS2 coat protein (Eterna round: R95, input ligand: FMN 200 uM) | apparent KD of MS2 coat protein (Eterna round: R95, input ligand: none) |
| --- | --- | --- | --- | --- | --- | --- |
| ACAAGCUUUUUGUUUGUCUACAUGAGGAUCACCCAUGUGGGUGUCAGUCAUGCUGGCGUGUGGUGUCGUGGCAGCGC [Sensor V1 S1] (Eterna round: R97, puzzle: Sensor, turn-off variant 1) | 978 nM | 1610 nM | – | – | – | – |
| ACACUGCGAGGAUAUACAUGAGGAUCACCCAUGUUAAGGAAGUCAAGGUUAAUUUAAGGUAGAAGGCGCUUAUU [JR_Ex3_Sub013] (Eterna round: R97, puzzle: Exclusion 3) | 46.2 nM | 39.7 nM | – | – | – | – |
| ACACUGCGAGGAUAUACAUGAGGAUCACCCAUGUUUCGGUAGUCAAGGUUAAUUUAAGGUAGAAGGCGCGUAUU [JR_Ex3_Sub010] (Eterna round: R97, puzzle: Exclusion 3) | 63.8 nM | 33.2 nM | – | – | – | – |
| ACAGCGUGAGGAUAUACAUGAGGAUCACCCAUGUGUGGCAGGUUAUCCUGUCAUAAGUGUAGAAGGCACGCUGU [Exclusion 3 - Oddities v.6 ( A small slide from ms2 to fmn)] (puzzle: Exclusion 3) | – | – | 37.2 nM | – | – | – |
| ACAGCGUGAGGAUAUACAUGAGGAUCACCCAUGUGUGGCAGGUUAUCCUGUCAUGAGUGUAGAAGGCACGCUGU [Exclusion 3 - Oddities v.7 ( A small slide from ms2 to fmn)] (puzzle: Exclusion 3) | – | – | 26.2 nM | – | – | – |
| ACAUCGCCAGAAGUAGGUGACAUGAGGAUCACCCAUGUAGGCUAUUUUGCUCGUUUUAUUUCCACCCUAUUUGCUCC [Eternabot (L1) Solution 13] (Eterna round: R97, puzzle: Sensor, turn-off variant 1) | 146 nM | 190 nM | – | – | – | – |
| ACAUGACAGCUAGGAUAUAAAUGACAUGAGGAUCACCCAUGUUGUCCCAUGUUGACGAUCACCGAUUAGAAGGAGCCACCCAUG [Ex NG2 #1] (Eterna round: R96, puzzle: Exclusion NG 2) | 106 nM | 89 nM | – | 110 nM | – | – |
| ACAUGACUGCUAGGAUAUAGAUGACAUGAGGAUCACCCAUGUUAUCCCAUGUUGACGGAAACCGACUAGAAGGAGCAGCAUAUG [Ex NG2 #9] (Eterna round: R96, puzzle: Exclusion NG 2) | 118 nM | 45.3 nM | – | 43.5 nM | – | – |
| ACAUGACUGCUAGGAUAUAGAUGACAUGAGGAUCACCCAUGUUGUCCCAUGUUUAUGGAAACGGACUAGAAGGAGCAGCAUAUG [Ex NG2 #12] (Eterna round: R96, puzzle: Exclusion NG 2) | 25.7 nM | 30.2 nM | – | 24.8 nM | – | – |
| ACAUGAGGAUCACCCAUGUAAACAUAAUGGCUCAUGUAGAGUCAGGAUAUGCGUGGCGAACAACCGCAGAAGGGACAAGACUGG [Deportation 27 - Jieux - Exclusion NG 3] (Eterna round: R96, puzzle: Exclusion NG 3) | 25.7 nM | 29 nM | – | 20.4 nM | – | – |
| ACAUGAGGAUCACCCAUGUAAUCAUAAUGGCUGAUGUAGAGUCAGGAUAUGUGUGGCUUUCUAUCGCAGAAGGGACAAGACUGG [Deportation 34 - Jieux - Exclusion NG 3] (Eterna round: R96, puzzle: Exclusion NG 3) | 26.3 nM | 30.7 nM | – | 26.4 nM | – | – |
| ACAUGAGGAUCACCCAUGUAAUCAUGAUGGCUGAUGUAGAGGUAGGAUAUGAGUGGCUUUCUAUCUCAGAAGGACCAAGACUGG [Deportation 39 - Jieux - Exclusion NG 3] (Eterna round: R96, puzzle: Exclusion NG 3) | 29 nM | 27.3 nM | – | 21.6 nM | – | – |
| ACAUGAGGAUCACCCAUGUAAUCAUGAUGGCUGAUGUAGAGUCAGGAUAUGUGUGGCUUUCUAUCGCAGAAGGGACAAGACUGG [Deportation 35 - Jieux - Exclusion NG 3] (Eterna round: R96, puzzle: Exclusion NG 3) | 45.6 nM | 43.4 nM | – | 37.7 nM | – | – |
| ACAUGAGGAUCACCCAUGUACACGUAAUGGCUCAUGUAGAGUGAGGAUAUGUGAGACGAACGAGCACAGAAGGCACAAGACUGG [Deportation 11 - Jieux - Exclusion NG 3] (Eterna round: R96, puzzle: Exclusion NG 3) | 36.1 nM | 45.4 nM | – | 21.8 nM | – | – |
| ACAUGAGGAUCACCCAUGUCCGGCUGGUCCGUUUCGGCUGUCGAGGAUAUAGUUCGGUGUCCGCGCUAGAAGGCGGGAGCUGGC [Aenatbe mod 61] (Eterna round: R96, puzzle: Exclusion NG 3) | 181 nM | 98.5 nM | – | 67 nM | – | – |
| ACAUGAGGAUCACCCAUGUCCGGCUGGUCUGUCUCGGCUGUCGAGGAUAUAGCACGGUAUCCGCGCUAGAAGGCGGGAGCCGGU [Aenatbe mod 87] (Eterna round: R96, puzzle: Exclusion NG 3) | 216 nM | 42.8 nM | – | 29 nM | – | – |

| Sequence | apparent KD of MS2 coat protein (input ligand: FMN 200 uM) | apparent KD of MS2 coat protein (input ligand: none) | apparent KD of MS2 coat protein [1] | apparent KD of MS2 coat protein [2] | apparent KD of MS2 coat protein (Eterna round: R95, input ligand: FMN 200 uM) | apparent KD of MS2 coat protein (Eterna round: R95, input ligand: none) |
| --- | --- | --- | --- | --- | --- | --- |
| ACAUGAGGAUCACCCAUGUCCGGCUGGUCUGUCUCGGCUGUCGAGGAUAUAGCUCGGUAUCCGCGCUAGAAGGCGGGAGCCGGC [Aenatbe mod 90] (Eterna round: R96, puzzle: Exclusion NG 3) | 98 nM | 72.7 nM | – | 43.5 nM | – | – |
| ACAUGAGGAUCACCCAUGUGAAAAGAAUGGCUGACACAGAGAUAGGAUAUGCGUGCAUAUCUAACGCAGAAGGGUCAUGACUGG [Deportation 81 - Jieux - Exclusion NG 3] (Eterna round: R96, puzzle: Exclusion NG 3) | 25.9 nM | 28.3 nM | – | 22.4 nM | – | – |
| ACAUGAGGAUCACCCAUGUGAAAGAAAUGGCUGACUUUGAGCUAGGAUAUUUGUGCAUAUCAAACGAAGAAGGAGCAUUACUGG [Deportation 100 - Jieux - Exclusion NG 3] (Eterna round: R96, puzzle: Exclusion NG 3) | – | – | – | 16.4 nM | – | – |
| ACAUGAGGAUCACCCAUGUGACCACAAUGGCUGAUGUAAAGACAGGAUAUGUGUGAAUAUCUAACACAGAAGGGUCUUGACUGG [Deportation 57 - Jieux - Exclusion NG 3] (Eterna round: R96, puzzle: Exclusion NG 3) | 53 nM | 47.8 nM | – | 47.1 nM | – | – |
| ACAUGAGGAUCACCCAUGUGACCACAAUGGCUGAUGUAACAACAGGAUAUGUGUGAAUAUCUAACACAGAAGGGUUUUGACUGG [Deportation 58 - Jieux - Exclusion NG 3] (Eterna round: R96, puzzle: Exclusion NG 3) | 76.9 nM | 75.9 nM | – | 59.3 nM | – | – |
| ACAUGAGGAUCACCCAUGUGCACGUAAUGGCUCAUGUAGAGUGAGGAUAUGCGUGGCGAACGCGCGCAGAAGGCACAAGACUGG [Deportation 18 - Jieux - Exclusion NG 3] (Eterna round: R96, puzzle: Exclusion NG 3) | 129 nM | 99.7 nM | – | 88.8 nM | – | – |
| ACAUGAGGAUCACCCAUGUUAGGUUGGUUUUCUCCGGCUGUUGAGGAUAUAGUCCGGUAUCCGCGCUAGAAGGUGAGGGUUGGC [Aenatbe mod 9] (Eterna round: R96, puzzle: Exclusion NG 3) | 61.9 nM | 64.9 nM | – | 60 nM | – | – |
| ACAUGAGGAUCACCCAUGUUUGGCUGGUUUUCUCCGGCUGUCGAGGAUAUAGUACGGUAUCCGCGCUAGAAGGUGAGGGUCGGC [Aenatbe mod 2] (Eterna round: R96, puzzle: Exclusion NG 3) | 17.1 nM | 19 nM | – | 12.2 nM | – | – |
| ACAUGAGGAUCACCCAUGUUUUUUGGGUACUUUUGUUUCUGCAAGGAUAUGCAUUAUUUAUAUACGCAGAAGGUGCAUUACUUC [JR_ExcNG3_Sub061] (Eterna round: R96, puzzle: Exclusion NG 3) | – | – | – | 501 nM | – | – |
| ACAUGCCGCGCAGGAUAUGGGACACAUGAGGAUCACCCAUGUGGUUUCAUGUCUAACCAAGCGUCCCAGAAGGGCGUGAACAUG [Ex NG2 #29] (Eterna round: R96, puzzle: Exclusion NG 2) | 30.9 nM | 25.2 nM | – | 16.1 nM | – | – |
| ACAUGGAAGCAGGAUAUGCUUGUAUAAUUGAAAGCAGAAGGGCUAACAUGAGGAUCACCCAUGUAAGAGGUCUA [JR_E6_Sub060] (puzzle: Exclusion 6) | – | – | 21 nM | – | 91 nM | 24.7 nM |
| ACAUGGAAGCAGGAUAUGCUUGUAUAAUUGUUUGCAGAAGGGCUAACAUGAGGAUCACCCAUGUAAGAGGUCUA [JR_E6_Sub061] (puzzle: Exclusion 6) | – | – | 15.9 nM | – | – | – |
| ACAUGUAAUGCAGGAUAUGGGACACAUGAGGAUCACCCAUGUGACCAGAGGUAAUGCUAAGAGUCUCAGAAGGGUAUGUACAUG [Ex NG2 #49] (Eterna round: R96, puzzle: Exclusion NG 2) | 22.5 nM | 19 nM | – | 14.5 nM | – | – |
| ACAUGUCAUCGAGGAUAUUGCACACAUGAGGAUCACCCAUGUAUACGGUUGCUCUUGCGUGAGUUCGAGAAGGCGAUGUACAUU [Ex NG2 #86] (Eterna round: R96, puzzle: Exclusion NG 2) | 109 nM | 313 nM | – | 198 nM | – | – |
| ACAUGUCAUUGAGGAUAUUGCAAACAUGAGGAUCACCCAUGUAUACGGAUGCUCUUACGUGGGUUCGAGAAGGCGAUGUACAUU [Ex NG2 #92] (Eterna round: R96, puzzle: Exclusion NG 2) | 819 nM | 429 nM | – | 345 nM | – | – |
